Results taken from patent US20210002376A1 (UNIVERSIT T STUTTGART, published 2021).
Read-outs that look alike come from different tables or passages of the source. Blank lines part the entries; values can stand above or below the binder they belong to.

Assays:
[1] = target: T1, EGFR-Fc fusion protein (UniProt P00533 25-645); experiment: ELISA, coated EGFR-Fc, anti-human Fab-HRP
T1 construct: range 25-645; Coated antigen in ELISA; not shown: Fc part of the fusion, not described

[2] = target: T2, HER3-Fc fusion protein (UniProt P21860 21-643); experiment: ELISA, coated HER3-Fc, anti-human Fab-HRP
T2 construct: range 21-643; Coated antigen in ELISA; not shown: Fc part of the fusion, not described

[3] = target: T3, HER3-His (UniProt P21860 21-643); experiment: simultaneous binding ELISA: coated EGFR-Fc, Db titrated, HER3-His 300 nM added, anti-His-HRP
T3 construct: range 21-643; also called His-tagged HER3; second antigen

[4] = target: T4, HER3 (on tumor cells) (UniProt P21860 20-1342, limits assumed); experiment: flow cytometry on HER3-positive MCF-7 cells
T4 construct: whole, on cells; also called HER3 on MCF-7, SKBR-3 (SKBR3) and FaDu cells

[5] = target: T3, HER3-His; experiment: simultaneous binding ELISA: coated EGFR-Fc, Db titrated, HER3-His 300 nM added, anti-His-HRP; remark: listed apart in the source
[6] = target: T4, HER3 (on tumor cells); experiment: flow cytometry on HER3-positive MCF-7 cells; remark: listed apart in the source
[7] = target: T2, HER3-Fc fusion protein; experiment: ELISA, coated HER3-Fc, anti-human Fab-HRP; remark: listed apart in the source
[8] = target: T1, EGFR-Fc fusion protein; experiment: ELISA, coated EGFR-Fc, anti-human Fab-HRP; remark: listed apart in the source
[9] = target: T4, HER3 (on tumor cells); experiment: flow cytometry on SKBR-3 cells
[10] = target: T4, HER3 (on tumor cells); experiment: flow cytometry on MCF-7 cells
[11] = target: T4, HER3 (on tumor cells); experiment: flow cytometry on FaDu cells
[12] = target: T5, EGFR-His (UniProt P00533 25-645); experiment: ELISA, coated His-tagged EGFR ECD, anti-human Fc-HRP
T5 construct: range 25-645; also called His-tagged EGFR

[13] = target: T3, HER3-His; experiment: ELISA, coated His-tagged HER3 ECD, anti-human Fc-HRP
[14] = target: T3, HER3-His; experiment: simultaneous binding ELISA: coated EGFR-Fc, Db titrated, HER3-His 300 nM added, anti-His-HRP; remark: listed apart in the source
[15] = target: T3, HER3-His; experiment: as above; remark: listed apart in the source

B2: Db3-43xhu225-Ig (bispecific antibody, human IgG1, kappa)
heavy: EVQLVESGGGLVQPGGSLRLSCAASGFSLTNYGVHWVRQAPGKGLEWLGVIWSGGNTDYNTPFTSRFTISRDNSKNTLYLQMNSLRAEDTAVYYCARALTYYDYEFAYWGQGTTVTVSSGGGGSQAGLTQPPAVSVAPGQTASITCGRDNIGSRSVHWYQQKPGQAPVLVVYDDSDRPAGIPERFSGSNYENTATLTISRVEAGDEADYYCQVWGITSDHVVFGGGTKLTVLASTKGPSVFPLAPSSKSTSGGTAALGCLVKDYFPEPVTVSWNSGALTSGVHTFPAVLQSSGLYSLSSVVTVPSSSLGTQTYICNVNHKPSNTKVDKKVEPKSCDKTHTCPPCPAPPVAGPSVFLFPPKPKDTLMISRTPEVTCVVVDVSHEDPEVKFNWYVDGVEVHNAKTKPREEQYNSTYRVVSVLTVLHQDWLNGKEYKCKVSNKGLPSSIEKTISKAKGQPREPQVYTLPPSRDELTKNQVSLTCLVKGFYPSDIAVEWESNGQPENNYKTTPPVLDSDGSFFLYSKLTVDKSRWQQGNVFSCSVMHEALHNHYTQKSLSLSPGK
light: QVQLQQSGPGLVKPSQTLSLTCAISGDSVSSNRAAWNWIRQSPSRGLEWLGRTYYRSKWYNDYAQSLKSRITINPDTPKNQFSLQLNSVTPEDTAVYYCARDGQLGLDALDIWGQGTMVTVSSGGGGSDIQLTQSPSFLSASVGDRVTITCRASQSIGTNIHWYQQKPGKAPKLLIKYASESISGVPSRFSGSGSGTEFTLTISSLQPEDFATYYCQQNNNWPTTFGAGTKLEIKRTVAAPSVFIFPPSDEQLKSGTASVVCLLNNFYPREAKVQWKVDNALQSGNSQESVTEQDSKDSTYSLSSTLTLSKADYEKHKVYACEVTHQGLSSPVTKSFNRGEC
notes: also called bispecific, tetravalent Diabody-Ig targeting EGFR (hu225) and HER3 (3-43) using CH1 and CL; DbEGFRxHER3-Ig
EC50 [5]: 0.85 nM | EC50 [6]: 0.054 nM | EC50 [7]: 0.34 nM | EC50 [8]: 0.43 nM

B3: 3-43-IgG (antibody, V domains shown)
VH: QVQLQQSGPGLVKPSQTLSLTCAISGDSVSSNRAAWNWIRQSPSRGLEWLGRTYYRSKWYNDYAQSLKSRITINPDTPKNQFSLQLNSVTPEDTAVYYCARDGQLGLDALDIWGQGTMVTVSS
VL: QAGLTQPPAVSVAPGQTASITCGRDNIGSRSVHWYQQKPGQAPVLVVYDDSDRPAGIPERFSGSNYENTATLTISRVEAGDEADYYCQVWGITSDHVVFGGGTKLTVL
EC50 [9]: 0.022 nM | EC50 [10]: 0.021 nM | EC50 [11]: 0.003 nM

Continued, values first:

EC50 [1]: 0.48 nM | EC50 [2]: 1.4 nM | EC50 [3]: 1.3 nM | EC50 [4]: 1.54 nM
B1: Db3M6xhu225-Ig (bispecific antibody, human IgG1, kappa)
heavy: EVQLVESGGGLVQPGGSLRLSCAASGFSLTNYGVHWVRQAPGKGLEWLGVIWSGGNTDYNTPFTSRFTISRDNSKNTLYLQMNSLRAEDTAVYYCARALTYYDYEFAYWGQGTTVTVSSGGGGSQSALTQPASVSGSPGQSITISCTGTSSDVGSYNVVSWYQQHPGKAPKLIIYEVSQRPSGVSNRFSGSKSGNTASLTISGLQTEDEADYYCSSYAGSSIFVIFGGGTKVTVLASTKGPSVFPLAPSSKSTSGGTAALGCLVKDYFPEPVTVSWNSGALTSGVHTFPAVLQSSGLYSLSSVVTVPSSSLGTQTYICNVNHKPSNTKVDKKVEPKSCDKTHTCPPCPAPPVAGPSVFLFPPKPKDTLMISRTPEVTCVVVDVSHEDPEVKFNWYVDGVEVHNAKTKPREEQYNSTYRVVSVLTVLHQDWLNGKEYKCKVSNKGLPSSIEKTISKAKGQPREPQVYTLPPSRDELTKNQVSLTCLVKGFYPSDIAVEWESNGQPENNYKTTPPVLDSDGSFFLYSKLTVDKSRWQQGNVFSCSVMHEALHNHYTQKSLSLSPGK
light: EVQLLESGGGLVQPGGSLRLSCAASGFTFSHYVMAWVRQAPGKGLEWVSSISSSGGWTLYADSVKGRFTISRDNSKNTLYLQMNSLRAEDTAVYYCTRGLKMATIFDYWGQGTLVTVSSGGGGSDIQLTQSPSFLSASVGDRVTITCRASQSIGTNIHWYQQKPGKAPKLLIKYASESISGVPSRFSGSGSGTEFTLTISSLQPEDFATYYCQQNNNWPTTFGAGTKLEIKRTVAAPSVFIFPPSDEQLKSGTASVVCLLNNFYPREAKVQWKVDNALQSGNSQESVTEQDSKDSTYSLSSTLTLSKADYEKHKVYACEVTHQGLSSPVTKSFNRGEC
notes: also called bispecific, tetravalent Diabody-Ig targeting EGFR (hu225) and HER3 (3M6); DbEGFRxHER3-Ig

EC50 [12]: 0.23 nM | EC50 [13]: 0.34 nM | EC50 [14]: 1.9 nM | EC50 [15]: 1.8 nM
B4: Db3-43xhu225-MHD2-Fc (bispecific antibody)
heavy: EVQLVESGGGLVQPGGSLRLSCAASGFSLTNYGVHWVRQAPGKGLEWLGVIWSGGNTDYNTPFTSRFTISRDNSKNTLYLQMNSLRAEDTAVYYCARALTYYDYEFAYWGQGTTVTVSSGGGGSQAGLTQPPAVSVAPGQTASITCGRDNIGSRSVHWYQQKPGQAPVLVVYDDSDRPAGIPERFSGSNYENTATLTISRVEAGDEADYYCQVWGITSDHVVFGGGTKLTVLASAELPPKVSVFVPPRDGFFGNPRKSKLICQATGFSPRQIQVSWLREGKQVGSGVTTDQVQAEAKESGPTTYKVTSTLTIKESDWLGQSMFTCRVDHRGLTFQQNASSMCVPDDKTHTCPPCPAPPVAGPSVFLFPPKPKDTLMISRTPEVTCVVVDVSHEDPEVKFNWYVDGVEVHNAKTKPREEQYNSTYRVVSVLTVLHQDWLNGKEYKCKVSNKGLPSSIEKTISKAKGQPREPQVYTLPPSRDELTKNQVSLTCLVKGFYPSDIAVEWESNGQPENNYKTTPPVLDSDGSFFLYSKLTVDKSRWQQGNVFSCSVMHEALHNHYTQKSLSLSPGK
light: QVQLQQSGPGLVKPSQTLSLTCAISGDSVSSNRAAWNWIRQSPSRGLEWLGRTYYRSKWYNDYAQSLKSRITINPDTPKNQFSLQLNSVTPEDTAVYYCARDGQLGLDALDIWGQGTMVTVSSGGGGSDIQLTQSPSFLSASVGDRVTITCRASQSIGTNIHWYQQKPGKAPKLLIKYASESISGVPSRFSGSGSGTEFTLTISSLQPEDFATYYCQQNNNWPTTFGAGTKLEIKRTAELPPKVSVFVPPRDGFFGNPRKSKLICQATGFSPRQIQVSWLREGKQVGSGVTTDQVQAEAKESGPTTYKVTSTLTIKESDWLGQSMFTCRVDHRGLTFQQNASSMCVPD
notes: homodimeric Fc part
